test: label from the status in PepcDB records

For “MNKDLKAIKWFITTQILKDPFNPAYATFKVTSRCNLRCTFCSPSYYSGELGEGSTERVKKIIDNLRDSSIVVLSFEGGEPTYRPDILDLLEYAHDGSFYIMLTTNGYRLKDEDFLTKLADKIDFLHYSIDEYHWNVKELENLCRFRKYGLKVNVQTVVTRYNLYKLEEKVRKVAECGYKILAMPAVDYPNSKVKLAPDPYEFYKVLYDLKRKYGSTLNNSWGFINAIIGKVPKRVVSYAITIYPNGDLPYPDDINGEIVGNVAEEPLNKILQSSKVKELQQKMLENQAKFEYLHLQTASFNNIRDLASYVSEMLRWRFTGRA”, which protein production is on record?
The protein production was “failed”.

Which protein production does the source give for “MNKEMTLLPPPELVQYVGGDFKKVGKEFLKHFIQIGALKSNEKVLDVGCGVGRMAVPLMNYLNDDGAYYGFDLFKDGITWCQNNISTMRNNFHFEHVDIYNQFYNPEGKEDASQYRFPYEDGTFDFIFLTSVFTHLLPKELEHYVSEIVRVLKKDGRCFITFFLINPESSYYLNAGQSTLGFYHRIENCYVVNKDIPNFAVAYPETDICNLLNKYGLEIINKPHYGLWCGRHEYTSYQDIVLTKKSLEHHHHHH” here?
Its protein production is “failed”.

For “MNKERGMKGTCLCGAIEVIAEPKNEVSLCHCSMCRKWSSGALHAVHCGPEVTFKGAEPKRYQSSDWAVRGFCGECGTNLFYHLLPTNEYILSAGLFDNPDFKLTLEIFTDEKPGYYELNPHSKKMTAQEVYDQFVPKE”, which protein production is on record?
Its protein production is “failed”.

For “MNKFELYHPILTEHFALDWLTHSKVRDIFELRHDPEIAKASDRDIDATIEDTTTYVNQMMRLVMNNEALIWGITDQNTHEFLGTFCIWDFDQAQKSASVRFEILRNQQHKGIMSEVLRRMSIFSFEELGLEKLFATALKNNTIARTLLEQVGFSAVASQTDNQNITLELNRH”, which protein production is on record?
The protein production was “failed”.

With “MNKFGAEKIFIEKQSGATITHRPIFQEALDFVRAQDIFIVEAIDRLGRNYDEIIDSVNYLKKKNVRLIITSLPIMAEAIGNPLLDKFIKDLIIQILAMIAEQERTESKRRQAQGIKIAKANGVYKGRPKLYSADTKDPQRRLVYKSIVQDLKNGVAISKIAKDYNITRQTIYRIKKEIHELEIN” as the sequence, how does the protein production read?
The protein production was “failed”.

For “MNKFLTTIIIKSKCSLLFISSINDSFIYIIRRMINANWSNFTLSWSIARNYWYYFRKCLDGRPFTVFLTSYQIFSTSFCKGNMFYVISSLIIFIQIMNCFLEHHHHHH”, which protein production is on record?
Its protein production is “failed”.

For “MNKHASQPRAIYYVVALQIWEYFSFYGMRALLILYLTNQLKYNDTHAYELFSAYCSLVYVTPILGGFLADKVLGNRMAVMLGALLMAIGHVVLGASEIHPSFLYLSLAIIVCGYGLFKSNVSCLLGELYEPTDPRRDGGFSLMYAAGNVGSIIAPIACGYAQEEYSWAMGFGLAAVGMIAGLVIFLCGNRHFTHTRGVNKKVLRATNFLLPNWGWLLVLLVATPALITILFWKEWSVYALIVATIIGLGVLAKIYRKAENQKQRKELGLIVTLTFFSMLFWAFAQQGGSSISLYIDRFVNRDMFGYTVPTAMFQSINAFAVMLCGVFLAWVVKESVAGNRTVRIWGKFALGLGLMSAGFCILTLSARWSAMYGHSSLPLMVLGLAVMGFAELFIDPVAMSQITRIEIPGVTGVLTGIYMLLSGAIANYLAGVIADQTSQASFDASGAINYSINAYIEVFDQITWGALACVGLVLMIWLYQALKFRNRALALES”, which protein production is on record?
The protein production was “failed”.

For “MNKKKIKKLIKSALATTCAVSVITTTSVTAFASNSGENSKEEESNKRVEAEVYPVPQSLEHSSIEGMTLEGEVNIVYHGEQEAATSKRLERTLNENNIAFKVSENVEEGKANIIVSSEGDHCDVCSEGKEENSDVLTHKEGYVLKTSNDINEKGNISIIGSDKDGAYYGVLTLSQILEQSNEENKFAEVVVTDYPEIEFRGFIEGFYGVPWSHEDRMNLMKDTSEYKMNTYIYAPKDDPYHRLSWKELYPEQEAKQIAELAKAGAENNFNFCWTIHPGATLQFTDEDFDALINKFEQLYSLGVRQFGVLFDDTDDWRNGQKQAEWINKIDTEFVKAKGDVAPMIVISARYNSAWGPNMDRYFKPFMQTLHDDIQVMWTGHATMSNVSKEVFEWPKVQTGVDKDVAVWWNYPVNDYCDSRILMAPLHNLNQDLDNVSGFFSNPMNQAEASKVALYSIADYTWNTDAFDYMKSWETSIEKFVPEVKEEFMRFASNTCYLKDDGGASGPFEYDESWYLSEKIDALKEAMKNGQSAVKPAKDLLEEFKLIVSDYESITSKVTNKNLLGEIEQHLNAYKALGEAGIAAMEAIIASEEGNLELWMNSNSLAQEKLDLMETFKIESLESDGPKEYVVSVGTKLLKPLVKESMDYAKEKMGEVVLPKYDPEINTSLTNLKDVEVNFEDGIYSLRDLGEVTLNNGDYVGISLPKATKLRGINLLANNYDNIEIQYSINGLDWVTAKASTNENVLETLDVVDATFIRIINIGENSKNINLEKLEVLPVYKAEPTITENIGTHENYTIDKALDGNMDTKYWSNKPSDSGHNIQIDLGNVMPLYDINTYFGANDFMRNSEYMISEDGVNWTSLGALAYNSQDGKMVASANAEGKMARYIKIQSNGHNYGCWVEIYEIEFNKTAPEFDESAVNLASGTLEGNFNAFYDEDLSTAYEAKSVKDGDSLIYKMSRVTNISELEILQDKNRISEAKVSVKDLGGNWTEIGHLNAQINKLKVDNNITEVKFEFEGSKPAPKIYEIIAREREEQEEIVVSPVKEFKATTINKKNVTVSWEEPENTFGLESYILYKDGKKVSEISSDETSYTFKGLNRHTIYNFKIAAKYSNGEISKKESLTIRTAR”, which protein production is on record?
Its protein production is “failed”.

With “MNKKRTVDLIHGPILPSLLSFTFPILLSNIFQQLYNTADVLIVGRFLGQESLAAVGATTAIFDLIVGFTLGVGNGMGIVIARYYGARNFTKIKEAVAATWILGALLSILVMLLGFLGLYPLLQYLDTPAEILPQSYQYISMIVTCVGVSFAYNLFAGLLRSIGDSLAALGFLIFSALVNVVLDLYFITQLHLGVQSAGLATIISQGLSAVLCFYYIRKSVPELLPQFKHFKWDKSLYADLLEQGLAMGLMSSIVSIGSVILQFSVNTFGAVIISAQTAARRIMTFALLPMTAISASMTTFASQNLGAKRPDRIVQGLRIGSRLSISWAVFVCIFLFFASPALVSFLASSTDGYLIENGSLYLQISSTFYPILSLLLIYRNCLQGLGQKILPLVSSFIELIGKIVFVVLIIPWAGYKGVILCEPLIWVAMTVQLYFSLFRHPLIKEGKAILATKVQS” as the sequence, how does the protein production read?
The protein production was “failed”.

Which protein production does the source give for “MNKKTIGFFSGIAVFAIIYFLPIAGLSAKGQMDLALSLMTVVWWATQIAQPAFVGGIYLMLLIIMNVATPSQVFSSAWTGSIMWLVIGAYLIAGAVNESGLGQRIAYAFIIKFVRSWKGIVISIFALTFILALLIPHPWPRAFMIMSVITVVAETAKMPKRDLAKLGLAVFAASCPLSGVFYTGDTSLNPLAVQASGQSVNFVSYFIYMGVPMIIAAILTMFLFLFLFKPSQEVHIDVEALKQQQAQLGGMTGKEVRTIIWLIIAIALWLTSGITGLDVGWLTLIVALMMSLPVVGGILTAKSWEGVPVNVLVFLTSAIAIGNVGGVTGMNNWIAKTLIPSNLPTNIYLLAIVITVFAMIIHMFMGSVIAVMGITIPAFVAATAHMGISPLAVSLLVFSVTNLHYILPFHNLAVLVGSDPDTGGGYTQKDVMRLGIPLTAVVFVVALVEMFWFHLVGLA” here?
Its protein production is “failed”.

With “MNKLILISGLMLFSFFFGAGNLIFPPMLGYTAQENMWVSMTGFAITGILLPYITVIVVAYMNGGVESIGNKVHPIFGTVFAICIYLSIGALYGIPRAANVAYEIGTNHVLPVHNHFTLIIFSLIFFLVVYLIALYPNRIIDNLGKYLTPILIIIIAVLCILVIINPEGSIGQASGEYAQTPIVSGILEGYFTMDLVAALAFSVVIVQMFKMSGVNDHKTLVKNVIKSGLISAILLLIIYFALAYVGATTSHEGFKDGTGILTFNSLRVFGSIGNLLFGVIVILACLTTCIGLVNACAAFAMKKLPKISYKMFVLIFSLLGFLVSTLGLELILQIAVPLLTFIYPTSIVLVLISLVSIFIPFEMKYAFILPTLMTLFISLLQIFNDFNLFQPLISLYKVLPLSDIQLSWLLPFIILLFIGLIIDYFLKNKTVSTS” as the sequence, how does the protein production read?
Its protein production is “failed”.

Which protein production does the source give for “MNKNQMLLGSFLCLLAVTAWGFMFPVMARALQFIDPFFFTTLRYGSAAIIFLILLLITEGKTSLRLEKRTLSLFFYGTVGFAGYGFLVFYGQQLAGPSGAIHAAMIQSLMPLIALSLQWITQNRRPQNYTFLCMFVALLGVMLVISKGNIELLFGAASHLSTNILMLCGVTCWVIYTNGAARFQSWSPLRYTTLTCLFGSISLIVIVTFLTYTNIVTMPSLRTVVSVRFELFYMSIIAGVIAVFCWNMGNRYISSINGILFMNLVPILALIGSIFRGYTVDKIEIAGAALTIIALLCNNLWQRKVNIKIPTSVR” here?
Its protein production is “failed”.

For “MNKRLFYYLFAVLCTVTLFTSCSDDDGDDTPTVIPIEQEIAGDYKGTMDVYYVGVPDPIASGLSQKVYVTKASDTAVKLELRDFVFFLGSEELNLGTIAVENCPVTVEGTSYKFSGNQKMTLLVGDCDVAVSGTIGSGNLAMIVDVKVGGGTLQVKVDYKGTKLAGTESTEAKILSFTFDKSVEANAVVFSEPIVNEEDGTIVFEVLKDVTTDDLKKLVPTIEVSAKATVTPASGATVDFSSNKAIFTVVAEDGSSKIYTASISGRAFVVSYDFEEWDPVTHKPMLGNEETFTTPTGWCTSNYGIVEMGMFKPMLGVSGWLVTEESEGHNGKSALLRTINSKGGVGGLIPTITTGSLFLGTWSTNAGNTLNSTKFGNQFNNSLGRPVAVKGWYKYESGKDFYTCESDATDKATIDVSKGEYADQYSIKVSLYTTEEYDETGFSDYLTGESGDNNFYTSSRVVAKGGVEGGSTDGQWKEFTITLDYGDAEFDINQKYRFAIVCSSSKEGDKFWGAPESKLWVDDIEVIYKK”, which protein production is on record?
Its protein production is “failed”.

For “MNKRSIFSNWFITARPKTLPLALASIMVGSALANWVGQFDWVTNLLAIITTMLLQILSNFANDYGDYVKGSDTQERIGPLRAIQQGNITGEQLRQAVIFLSFLSFISGLVLTIYAYQSLQDLLVFVSLGVVSIIAAISYTVGKKAYGYLGLGDLFVLIFFGFVAVIGSFYLQAHSIPIIILLPAFACGLLSVAVLNINNLRDINQDRQAGKNTLIVRIGSDNGRIYHMLLLTLAVICYLIFAIIEGNHWYNYLFLLAVPLLVQHALFVYRYQEPIELRPMLGKMAALALLTNLLFSIGIMLG”, which protein production is on record?
The protein production was “failed”.

For “MNKSKIAGIMAKLNAVDNQLVEDVAYVRSRDFPNQRFDHQQGYKGSYGNGQTSYSQNSQFQQPLQNNNSFSFTRNFDLASYQDLTAPIPRWNESSLTTSWHAASMESGYEFMKDDESDEFDVAKAVTKQNRAGSTLISRVARHTLIVLTDTTWVSIHNNTNLRKCRRLTEQNRPRLTEQD”, which protein production is on record?
Its protein production is “failed”.

Which protein production does the source give for “MNKVDEIEDFRFEDLEMETEKDKERMMTPTTRMSYSSSSSPSPSSASSSAASSLAAKAIRASSAHRDSSLSSAYSSPSSAPVPTPPKEVNKAYEYTSMKSLNEPKRGFWGSLASKAKAFLDEDDPNQLPQSPKRMEQSIPSATTSGTKEAGQTGRKSENPSLQRRLDAITSSLNYIGGTIGTVVEEGITAVENRTAGIIQETRKKIKKKPSLTRNQQNPEIQADLEIQLKASRDVAMAMAAKAKLLLRELKMVKSDLAFAKQRCAQLEEENKVLRENRSGDSQTDDDDLVRLQLETLLAEKARLAHENSIYTRENLYLRGVVEYHQLTMQDVVYFDEKTEEVTEVYPINVSSMSSSSDNSYNPNPSFLELK” here?
The protein production was “failed”.

Which protein production does the source give for “MNKVLINDTTLRDGEQAAGVVFTLEEKVAIAKFLDTIGVPELEVGIPAMGEEEMRAICAISNLGLKANLLAWNRAVISDIKASVACGMERVHIAIPVSGIQIAAKFHGQWRVSLQRLKDCISFAVDQGLWVAVGGEDSSRADENFLLDVALYAQEWGASRFRFCDTVGVLDPFTTYGKVKLLVSALTIPVEVHTHNDFGMATANALAGIKAGASSVNTTVIGLGERAGNAALEEVVMAIKRIYGVDMGIDTPRLLELSQLVAAASGANVPPWKAIVGENTFAHESGIHAHGVLQNPDTYEPFAPEEVGWERRLVVGKHSGRHSVSNLLEQHGIFLNPEETQSVLDAVRQQSIKKLEHHHHHH” here?
Its protein production is “failed”.

From a protein production outcome set (Wang et al. 2014)
